# In the RNAGym collection of RNA variant scans (doi:10.1073/pnas.2313332121):
# Variants at the floor of the assay were thinned out.
# B1: TPR 5TU (parent)
# chain: GGAUCUUCUCGAUCUAACAAAAAAGACAAAUCUGCCACAAAGCUUGAGAGCAUCUUCGGAUGCAGAGGCGGCAGCCUUCGGUGGCGCGAUAGCGCCAACGUUCUCAACUAUGACACGCAAAACGCGUGCUCCGUUGAAUGGAGUUUAUCAUG
# Variants of: B1
# Experiment: polymerase ribozyme fitness, log enrichment relative to wild type (log ratio); higher = more active; in vitro selection for triplet polymerase activity
# Summary of the method: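 Mutant libraries of both subunits of a heterodimeric triplet polymerase ribozyme were PCR-built, transcribed, and selected once in triplicate, with frozen incubation at −7 °C and capture of gel-excised extended constructs on streptavidin beads before RT-PCR. Illumina sequencing of input and output libraries was filtered to genotypes with ≥10 input reads and ≥1 read per output. Fitness is the logarithm of genotype enrichment over wild-type enrichment, using inverse-variance-weighted replicate averages. The logarithm is base 2.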
row,Variant,polymerase ribozyme fitness (log ratio)
1,GGAUCUUCUCGGUCUAACAAAAAAGACAAAUCUGCCACAAAGCUUGAGAGCAUCUUCGGAUGCAGAGGCGGCAGCCUUCGGUGGCGCGAUAGGGCCAGCGUUCUCAACUAUGACACGCAAAACGCGUGCUCCGUUGAAUGCAGUUUAUCAUG [A12G C93G A98G G141C],-2.52
2,GGAUCUUCUCGGUCUAACAAAAAAGACAAAUCUGCCACAAAGCUUGAGAGCAUCUUCGGAUGCAGAGGCAGCAGCCUUCGGUGGCGCGAUAGCGCCAACGUUCUCAACUAUGACACGUAAAACGCGUGCUCCGUUGAAUGGAGUUUAUCAUG [A12G G70A C118U],-3.56
3,GGAUCUUCUCGGUCUAACAAAAAAGACAAAUCUGUCACAAAGCUUGAGAGCAUCGUCGGAUGCAGAGGCGGCAGCCUUCGGUGGCGGGAUAGCGCCAACGUUCUCAACUAUGACUCGCAAAACGCGUGCUCCGUUGAAUGGAGUUUAUCAUG [A12G C35U U55G C87G A115U],-4.17
4,GGAUCUUCUCGGUCUAACAAAAAAGACAAAUCUGCCACAAAGCUUGAAAGCAUCUUCGGAUGCAGAGGCGACAGCCUUCGGUGGCACGAUAGCGCCAACGUUCUCAACUAUGACACGCAAAACGCUUGCUACGUUGAAUUGAGUUUAUAGUG [A12G G48A G71A G86A G126U C131A G140U C149A A150G],≤ -4.2
5,GGAUCUUCUCGGUCUAACAAAAAAGACAAAUCUGUCACAAAGCUUGAGAGCAUCUUCGGAUGCAGAGGCGGCAGCCUUCGGUAGCGCGAUAGCGCCAACGUUCUCAACUAUGACACGCAAAACGCGUGCUCCGUUGAAUGGAGUUUAUCAUG [A12G C35U G83A],-0.598
6,GGAUCUUCUCGGUCUAACAAAAAAGACAAAUUUGCCACAAAGCUUGAGAGCAUCUUCGGAUGCAGAGGCGGCAGCCUUCGGUGGAGCGAUAGCGCCAACGUUCUCAACUAUGACACGCAAAACGCGUGCUCCGUUGCAUGGAGUUUAUCAUG [A12G C32U C85A A137C],≤ -4.2
7,GGAUCUUCUCGGUCUAACAAAAAAGACAAAUCUGCCACAAAGCUUGAGAGCAUCUUCGGAUGCAGAGGCGGCAGCCUUCGGUGGGGCGAUAGCGCCAACGUUCUCAACUAUGACACGCAAAACGCGUGCUCCGUUGAAUGGAGUUUAUCAUG [A12G C85G],-1.96
8,GGAUCUUCUCGGUCUAACAAAAAAGACAAAUCUGCCACAAAGCUUGAGAGCAUCUUCGGAUGCAGAGGCGGCAGCCUUCGGUGGUGCGAUAGCGCCAACGUUCUCAACUAUGACACGCAAAACGCGUGCUCCGUUGAAUGGAGUUUAUCAUG [A12G C85U],0.000103
9,GGAUCUUCUCGGUCUAACAAAAAAGACAAAUCUGCCACAAAGCUUGAGAGCAUCUUCGGAUGCAGAGGCGGCAGCCUUCGGUGGCGCGAUACCGCCAACGUUCUCAGCUAUGACACGCAAAACGCGUGCUCCUUUGAAUGGAGUUUAUCAUG [A12G G92C A107G G133U],≤ -4.2
10,GGAUCUUCUCGGUCUAACAAAAAAGACAAAUCUGCCACAAAGCAUAAGAGCAUCUUCGGAUGCAGCGGCGGCAGCCUUCGGUGGCACGAUAGAGCCUACGUUCUCAACUAUGACACGCAAAACGCGUGCUCCGUUGAGUGGGGUUUAUCAUG [A12G U44A G46A A66C G86A C93A A97U A138G A142G],≤ -4.2
11,GGAUCUUCUCGGUCUAACAAAAAAGACAAAUCUGCCACAAAGCUUGAGAGCAUCUUCGGAUGCAGAGGCGGCAGCCUUCGGUGGCGCGAUAGCGCCAACGUUCUCAACUAUGACAGGCAAAACGCUUGCUCCGUUGAAUGGAGUUUAUCAUG [A12G C116G G126U],1.17
12,GGAUCUUCUCGGCCUAACAAAAAAGACAAAUCUGCCAUAAAGCUUGAGAGCAUCUUCAGAUGCAGAGGCGGCUGCCUUCGGUGGCGCGAUAGCGCCAACGUUCUCAACUAUGACACGCAAAACGCGUGCUCCGUUGAAUGGAGUUUAUCAUG [A12G U13C C38U G58A A73U],-1.35
13,GGAUCUUCUCGGUCUAACAAAAAAGACAAAUCUGCCACAAAGCUUGAGAGCAUUUUCGGAUGCAGAGGCGGCAGCCUUCGGUGGCUCGAUAGCGCCAACGUUCUUAACUAUGACACGCAAAACGCGUGCUCCGUUGAAUGGAAUUUAUCAUG [A12G C54U G86U C105U G143A],-2.5
14,GGAUCUUCUCGGUCUAACAAAAAAGACAAAUCUGCCACAAAGCUUGAGAGCAUCUUCGGAUGUAGAGGCGGCAGCCUUCGGUCGCGCGAUAGCGUCAACGUUCUCAACAAUGACACGCAAAACGCGUGCUCCGUUGAAUGGAGUUUAUCAUG [A12G C63U G83C C95U U109A],-2.16
15,GGAUCUUCUCGGUCUAACAAAAAAGACAAAUCUGCCACAAAGCUUGAGAGCAUCUUCGGAUGCAGAGGCCGCAGCCUUCGGUGGCGCGAUAGCGCCAACGUUCUCAACUAUGCCACGCAAAACGCGUGCUCCGUUGAAUGGAGCUUCUCAUG [A12G G70C A113C U144C A147C],≤ -4.2
16,GGAUCUUCUCGGUCUAACAAAAAAGACAAAUCUGCCACAAAGCUUGAGAGCAUCUUCGGAUGCAGAGGCGGCAGCCUUCGGUGGUGCGAUAGCGCCAACGUUCUCAACUAUGACACGCAAAACGCGUGAUCCGUUGAAUGGAGUUUAUCACG [A12G C85U C129A U151C],≤ -4.2
17,GGAUCUUCUCGGUCUAACAAAAAAGACAAAUCUGCAACAAAGCUUGAGAGCAUCUUCGGAUGCAGAGGUGGCAGCCUUCGGUGGGGCGCUAGCGCCAACGUUCUCAACUAUGUCACGCAAAACGCGUGCUCCGUUGAAUGGAGUUUAUCAUG [A12G C36A C69U C85G A89C A113U],≤ -4.2
18,GGAUCUUCUCGGUCUAACAAAAAAGACAAAUCUGCCACAAAGCUUGAGAGCAUCUUCGGAUGUAGAGGCGGCAGCCUUCGGUGGCGCGAUAGCGCCAACGUUCUCAACUAUGACACGCAAAACGCGUGCUCCGAUGAAUGGAGUUUAUCAUG [A12G C63U U134A],-2.26
19,GGAUCUUCUCGGUCUAACAAAAAAGACAAAUCUGCCACAAAGCUUGAGAGCAUCUUCGGAUGCAGAGGCAGCAGCCUUCGGUGGUGCGAUAGCGCCAACGUUCUGAACUAUGACAAGCAAAACGCGUGCUCCGUUGAAUGGAGUUUAUCAUG [A12G G70A C85U C105G C116A],≤ -4.2
